Experimental data published in patent US20210322559A1.
Non-standard residues stand in square brackets, D forms with d. No end group written: not given here. Hyp = O=C(O)[C@@H]1C[C@@H](O)CN1

Legend:
[1] = target: porcine gelatin (denatured collagen) (porcine); test: fluorescence; CHP 15 µM premixed into 10% porcine gelatin, 5 washes at 4 °C (FIG. 6B)
[2] = target: porcine gelatin (denatured collagen) (porcine); test: fluorescence in crosslinked gelatin film after 6 washes at 4 °C (FIG. 6A)

| Binder | percent removal after washes at 4 °C [1] | percent removal after washes at 4 °C [2] |
| --- | --- | --- |
| 9r, (PGOGPGPOPOGOGPOPGOOPGGOOPPG-G3)2KG3K^CF (also: branched dimer: two arms grown from both amines of Lys31, residues 32-61 are the second arm written reversed, G3K with carboxyfluorescein on the C-terminal Lys attached at branch point Lys31) PG[Hyp]GPGP[Hyp]P[Hyp]G[Hyp]GP[Hyp]PG[Hyp][Hyp]PGG[Hyp][Hyp]PPGGGGKGGGGPP[Hyp][Hyp]GGP[Hyp][Hyp]GP[Hyp]PG[Hyp]G[Hyp]P[Hyp]PGPG[Hyp]GP | > 95% | > 95% |
| PG[Hyp]PP[Hyp]GGP[Hyp][Hyp]G[Hyp]G[Hyp]PGPGGGKGGGPGP[Hyp]G[Hyp]G[Hyp][Hyp]PGG[Hyp]PP[Hyp]GP (also: branched dimer: two arms grown from both amines of Lys22, residues 23-43 are the second arm written reversed, G3K with carboxyfluorescein on the C-terminal Lys attached at branch point Lys22) [6r, (PGOPPOGGPOOGOGOPGP-G3)2KG3K^CF] | > 95% | > 95% |
| PP[Hyp]GGP[Hyp][Hyp]G[Hyp]G[Hyp]PGPGGGKGGGPGP[Hyp]G[Hyp]G[Hyp][Hyp]PGG[Hyp]PP (also: branched dimer: two arms grown from both amines of Lys19, residues 20-37 are the second arm written reversed, G3K with carboxyfluorescein on the C-terminal Lys attached at branch point Lys19) [5r, (PPOGGPOOGOGOPGP-G3)2KG3K^CF] | > 95% | > 95% |
